Numbered stars: 1 amine (or outer) side, 2 acyl side, 3 side chain; on linkers, the order of the positions; unused ones are H or OH. Bridge positions count the residues as written; N and C are the ends. Square brackets hold non-standard residues; d marks the D form. Ends that are not written are not given here. * marks the point of attachment. X17 = 2‑((1S,2S)-1-(Amino)-2-methylbutyl)‑1,3‑oxazole‑4‑carboxylic acid, CC[C@H](C)[C@H](N[*:1])c1nc(C(=O)[*:2])co1; (3-Chloro-Ph)G = 3-chlorophenylglycine, O=C([C@@H](N[*:1])c1cccc(Cl)c1)[*:2]; Oic = O=C(O)[C@@H]1C[C@@H]2CCCC[C@@H]2N1; Phe(3-Br) = N[C@@H](Cc1cccc(Br)c1)C(=O)O; Cyclobutanecarbonyl = O=C(C1CCC1)*; tBuAla = CC(C)(C)C[C@H](N)C(=O)O; Pen = CC(C)(S)[C@H](N)C(=O)O; NMeC = CN[C@@H](CS)C(=O)O; NPhGly = O=C(O)CNc1ccccc1; PEG3 = NCCOCCOCCOCCC(=O)O; Pip = O=C(O)[C@@H]1CCCCN1; NMeA = CN[C@@H](C)C(=O)O; Orn = NCCC[C@H](N)C(=O)O; Sar = CNCC(=O)O
T1: Recombinant human MASP1 enzyme (fragment corresponding to amino acids 297-699, C-terminal His Tag) (human, UniProt P48740 297-699)
T1 sequence: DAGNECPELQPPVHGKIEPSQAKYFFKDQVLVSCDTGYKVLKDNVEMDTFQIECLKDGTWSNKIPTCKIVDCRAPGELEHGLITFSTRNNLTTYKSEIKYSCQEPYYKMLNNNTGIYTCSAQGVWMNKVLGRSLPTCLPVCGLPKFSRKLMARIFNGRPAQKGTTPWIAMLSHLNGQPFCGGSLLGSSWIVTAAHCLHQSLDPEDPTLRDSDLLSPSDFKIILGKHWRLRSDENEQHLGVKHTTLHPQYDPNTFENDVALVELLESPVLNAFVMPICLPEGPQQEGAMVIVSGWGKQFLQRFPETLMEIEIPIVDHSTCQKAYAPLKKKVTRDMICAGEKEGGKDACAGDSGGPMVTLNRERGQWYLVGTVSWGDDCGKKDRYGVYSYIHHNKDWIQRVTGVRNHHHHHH

T2: recombinant human MASP1 active protease (amino acids 297-699, C-terminal His Tag) (human, UniProt P48740 297-699)
T2 sequence: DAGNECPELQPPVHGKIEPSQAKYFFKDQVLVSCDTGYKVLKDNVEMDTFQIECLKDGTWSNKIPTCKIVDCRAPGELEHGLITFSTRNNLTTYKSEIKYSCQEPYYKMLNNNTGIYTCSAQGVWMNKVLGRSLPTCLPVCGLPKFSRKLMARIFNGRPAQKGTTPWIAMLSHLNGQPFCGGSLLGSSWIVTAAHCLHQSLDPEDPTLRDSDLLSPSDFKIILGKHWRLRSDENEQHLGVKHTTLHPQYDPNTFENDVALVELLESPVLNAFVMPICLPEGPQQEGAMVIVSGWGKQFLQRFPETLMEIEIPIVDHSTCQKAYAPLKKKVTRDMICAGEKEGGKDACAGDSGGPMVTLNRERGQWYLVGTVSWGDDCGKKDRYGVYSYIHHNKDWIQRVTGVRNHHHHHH

T3: recombinant rat MASP1 active protease (amino acids 302-704, C-terminal His Tag) (rat, UniProt Q8CHN8 302-704)
T3 sequence: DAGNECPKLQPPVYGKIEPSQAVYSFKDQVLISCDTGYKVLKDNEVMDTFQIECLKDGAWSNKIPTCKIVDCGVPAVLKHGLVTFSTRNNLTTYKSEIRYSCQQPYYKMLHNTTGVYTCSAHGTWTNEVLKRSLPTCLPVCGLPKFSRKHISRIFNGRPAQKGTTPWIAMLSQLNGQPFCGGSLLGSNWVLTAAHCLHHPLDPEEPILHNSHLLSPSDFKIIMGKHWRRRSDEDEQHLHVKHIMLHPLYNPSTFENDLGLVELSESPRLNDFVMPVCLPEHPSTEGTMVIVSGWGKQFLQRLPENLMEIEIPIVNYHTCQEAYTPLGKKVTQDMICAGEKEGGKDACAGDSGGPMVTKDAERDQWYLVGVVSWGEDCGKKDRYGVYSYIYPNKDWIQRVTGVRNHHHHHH


How the values were obtained:
Test in all cases: cell-based or functional assay
[1] = target: recombinant rat MASP2 active protease (amino acids 296-685, C-terminal His Tag) (rat, UniProt Q9JJS8 296-685)
Sequence of recombinant rat MASP2 active protease (amino acids 296-685, C-terminal His Tag) (Q9JJS8 other isoform, or with tags, fused parts or gaps limits assumed): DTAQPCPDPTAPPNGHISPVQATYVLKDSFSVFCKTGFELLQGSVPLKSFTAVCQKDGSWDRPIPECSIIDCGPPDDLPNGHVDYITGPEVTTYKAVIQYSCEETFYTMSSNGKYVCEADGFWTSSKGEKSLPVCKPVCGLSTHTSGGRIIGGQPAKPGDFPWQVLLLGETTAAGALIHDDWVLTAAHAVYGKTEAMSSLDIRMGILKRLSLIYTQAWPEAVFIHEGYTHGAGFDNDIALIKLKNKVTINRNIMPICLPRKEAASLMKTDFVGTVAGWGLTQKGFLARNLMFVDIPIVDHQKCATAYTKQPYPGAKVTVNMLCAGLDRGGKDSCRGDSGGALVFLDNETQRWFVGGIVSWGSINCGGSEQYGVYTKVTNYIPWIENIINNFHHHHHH

[2] = target: T1, Recombinant human MASP1 enzyme …
[3] = target: Recombinant human MASP2 enzyme (fragment corresponding to amino acids 297-686, C-terminal His Tag) (human, UniProt O00187 297-686)
Sequence of Recombinant human MASP2 enzyme (fragment corresponding to amino acids 297-686, C-terminal His Tag) (O00187 other isoform, or with tags, fused parts or gaps limits assumed): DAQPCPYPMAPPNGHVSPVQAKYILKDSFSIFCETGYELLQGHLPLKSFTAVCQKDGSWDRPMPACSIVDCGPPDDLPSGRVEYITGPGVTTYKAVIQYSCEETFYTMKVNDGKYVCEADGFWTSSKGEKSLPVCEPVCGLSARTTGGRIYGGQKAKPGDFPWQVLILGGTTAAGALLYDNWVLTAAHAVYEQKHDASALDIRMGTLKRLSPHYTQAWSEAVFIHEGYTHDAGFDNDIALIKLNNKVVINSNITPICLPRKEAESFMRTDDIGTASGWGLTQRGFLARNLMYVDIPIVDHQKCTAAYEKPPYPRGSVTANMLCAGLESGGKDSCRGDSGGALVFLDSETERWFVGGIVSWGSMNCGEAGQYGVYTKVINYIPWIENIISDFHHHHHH

[4] = target: T2, recombinant human MASP1 active protease …
[5] = target: T3, recombinant rat MASP1 active protease …

Binder	human MASP1 IC50 [2]	human MASP2 IC50 [3]	other results
AICSRSLP[Oic]I[Pen]IPD-OH (disulfide 3-11; also: TFA salt) [Example 13: AIC+SRSLP-(Oic)-I-(Pen)+IPD-OH]	–	–	rat MASP2 IC50 [1]: 16.4 nM
[Orn]ICSRS[tBuAla]PPI[NMeC][X17]D-NH2 (disulfide 3-11; N-terminus assumed; SMILES CC[C@H](C)[C@H](NC(=O)[C@@H](N)CCCN)C(=O)N[C@H]1CSSC[C@@H](C(=O)N[C@H](c2nc(C(=O)N[C@@H](CC(=O)O)C(N)=O)co2)[C@@H](C)CC)N(C)C(=O)[C@H]([C@@H](C)CC)NC(=O)[C@@H]2CCCN2C(=O)[C@@H]2CCCN2C(=O)[C@H](CC(C)(C)C)NC(=O)[C@H](CO)NC(=O)[C@H](CCCNC(=N)N)NC(=O)[C@H](CO)NC1=O)	18 nM	910 nM	–
AICSRSLP[Oic]I[Pen]IPD-OH (disulfide 3-11; also: choline salt) [Example 432: AIC+SRSLP-(Oic)-I-(Pen)+IPD-OH (choline-salt)]	–	–	human MASP1 IC50 [4]: 2.7 nM
AICSRSLP[Oic]I[Pen]IPD-OH (disulfide 3-11; also: sodium salt) [Example 431: AIC+SRSLP-(Oic)-I-(Pen)+IPD-OH (sodium salt)]	–	–	human MASP1 IC50 [4]: 2 nM
[Phe(3-Br)]ICSRS[tBuAla]PPI[Pen]IPD-NH2 (disulfide 3-11; N-terminus assumed; SMILES CC[C@H](C)[C@H](NC(=O)[C@@H](N)Cc1cccc(Br)c1)C(=O)N[C@H]1CSSC(C)(C)[C@@H](C(=O)N[C@H](C(=O)N2CCC[C@H]2C(=O)N[C@@H](CC(=O)O)C(N)=O)[C@@H](C)CC)NC(=O)[C@H]([C@@H](C)CC)NC(=O)[C@@H]2CCCN2C(=O)[C@@H]2CCCN2C(=O)[C@H](CC(C)(C)C)NC(=O)[C@H](CO)NC(=O)[C@H](CCCNC(=N)N)NC(=O)[C@H](CO)NC1=O) [Example 330: ((3-Bromo)F)-IC+SRS-((tBu)A)-PPI-(Pen)+IPD-NH2]	–	–	human MASP1 IC50 [4]: 24 nM
ICSRS[tBuAla]PPI[Pen]IPP-NH2 (disulfide 2-10; N-terminus assumed; SMILES CC[C@H](C)[C@H](N)C(=O)N[C@H]1CSSC(C)(C)[C@@H](C(=O)N[C@H](C(=O)N2CCC[C@H]2C(=O)N2CCC[C@H]2C(N)=O)[C@@H](C)CC)NC(=O)[C@H]([C@@H](C)CC)NC(=O)[C@@H]2CCCN2C(=O)[C@@H]2CCCN2C(=O)[C@H](CC(C)(C)C)NC(=O)[C@H](CO)NC(=O)[C@H](CCCNC(=N)N)NC(=O)[C@H](CO)NC1=O) [IC+SRS-((tBu)A)-PPI-(Pen)+IPP-NH2]	19 nM	500 nM	–
AICSRSLP[Oic]I[Pen]IPD-OH (disulfide 3-11) [Example 5: AIC+SRSLP-(Oic)-I-(Pen)+IPD-OH (salt free form)]	–	–	rat MASP2 IC50 [1]: 49 nM
GICSRSL[Pip]PICID-OH (disulfide 3-11; N-terminus assumed; SMILES CC[C@H](C)[C@H](NC(=O)CN)C(=O)N[C@H]1CSSC[C@@H](C(=O)N[C@H](C(=O)N[C@@H](CC(=O)O)C(=O)O)[C@@H](C)CC)NC(=O)[C@H]([C@@H](C)CC)NC(=O)[C@@H]2CCCN2C(=O)[C@@H]2CCCCN2C(=O)[C@H](CC(C)C)NC(=O)[C@H](CO)NC(=O)[C@H](CCCNC(=N)N)NC(=O)[C@H](CO)NC1=O) [Example 401: GIC+SRSL-(Pip)-PIC+ID-OH]	–	–	human MASP1 IC50 [4]: 56 nM
[Sar]ICSRSLPPICIPN-OH (disulfide 3-11; N-terminus assumed; SMILES CC[C@H](C)[C@H](NC(=O)CNC)C(=O)N[C@H]1CSSC[C@@H](C(=O)N[C@H](C(=O)N2CCC[C@H]2C(=O)N[C@@H](CC(N)=O)C(=O)O)[C@@H](C)CC)NC(=O)[C@H]([C@@H](C)CC)NC(=O)[C@@H]2CCCN2C(=O)[C@@H]2CCCN2C(=O)[C@H](CC(C)C)NC(=O)[C@H](CO)NC(=O)[C@H](CCCNC(=N)N)NC(=O)[C@H](CO)NC1=O) [Example 394: ((N-Me)G)-IC+SRSLPPIC+IPN-OH]	–	–	human MASP1 IC50 [4]: 52 nM
AICSRSLPP[(3-Chloro-Ph)G]CIPD-NH2 (disulfide 3-11; N-terminus assumed; SMILES CC[C@H](C)[C@H](NC(=O)[C@H](C)N)C(=O)N[C@H]1CSSC[C@@H](C(=O)N[C@H](C(=O)N2CCC[C@H]2C(=O)N[C@@H](CC(=O)O)C(N)=O)[C@@H](C)CC)NC(=O)[C@H](c2cccc(Cl)c2)NC(=O)[C@@H]2CCCN2C(=O)[C@@H]2CCCN2C(=O)[C@H](CC(C)C)NC(=O)[C@H](CO)NC(=O)[C@H](CCCNC(=N)N)NC(=O)[C@H](CO)NC1=O) [AIC+SRSLPP-((3-Chloro-Ph)G)-C+IPD-NH2]	19 nM	1400 nM	–
[Sar]ICSRSLP[Oic]I[Pen]IP-{PEG3-NH2} (disulfide 3-11) [Example 7: ((N-Me)G)-IC+SRSLP-(Oic)-I-(Pen)+IP-(PEG2(13 atoms))-NH2]	–	–	rat MASP2 IC50 [1]: 16 nM; rat MASP1 IC50 [5]: 30 nM
[NPhGly]ICSRS[tBuAla]PPI[NMeC]I-NH2 (disulfide 3-11; N-terminus assumed; SMILES CC[C@H](C)[C@H](NC(=O)[C@@H]1CSSC[C@H](NC(=O)[C@@H](NC(=O)CNc2ccccc2)[C@@H](C)CC)C(=O)N[C@@H](CO)C(=O)N[C@@H](CCCNC(=N)N)C(=O)N[C@@H](CO)C(=O)N[C@@H](CC(C)(C)C)C(=O)N2CCC[C@H]2C(=O)N2CCC[C@H]2C(=O)N[C@@H]([C@@H](C)CC)C(=O)N1C)C(N)=O) [((N-Ph)G)-IC+SRS-((tBu)A)-PPI-((N-Me)C)+I-NH2]	18 nM	42 nM	–
Cyclobutanecarbonyl-ICSRS[tBuAla]PPI[NMeC]I-NH2 (disulfide 2-10; SMILES CC[C@H](C)[C@H](NC(=O)[C@@H]1CSSC[C@H](NC(=O)[C@@H](NC(=O)C2CCC2)[C@@H](C)CC)C(=O)N[C@@H](CO)C(=O)N[C@@H](CCCNC(=N)N)C(=O)N[C@@H](CO)C(=O)N[C@@H](CC(C)(C)C)C(=O)N2CCC[C@H]2C(=O)N2CCC[C@H]2C(=O)N[C@@H]([C@@H](C)CC)C(=O)N1C)C(N)=O) [(Cyclobutanecarboxylic)-IC+SRS-((tBu)A)-PPI-((N-Me)C)+I-NH2]	18 nM	19 nM	–
{Tetrahydro‑2H‑pyran‑3‑ylacetic acid}-ICSRSLP[Oic]I[Pen]IP-NH2 (disulfide 2-10) [(Tetrahydro-2H-pyran-3-ylacetic acid)-IC+SRSLP-(Oic)-I-(Pen)+IP-NH2]	17 nM	12 nM	–
[NMeA]ICSRSLPPICIPD-NH2 (disulfide 3-11; N-terminus assumed; SMILES CC[C@H](C)[C@H](NC(=O)[C@H](C)NC)C(=O)N[C@H]1CSSC[C@@H](C(=O)N[C@H](C(=O)N2CCC[C@H]2C(=O)N[C@@H](CC(=O)O)C(N)=O)[C@@H](C)CC)NC(=O)[C@H]([C@@H](C)CC)NC(=O)[C@@H]2CCCN2C(=O)[C@@H]2CCCN2C(=O)[C@H](CC(C)C)NC(=O)[C@H](CO)NC(=O)[C@H](CCCNC(=N)N)NC(=O)[C@H](CO)NC1=O) [((N-Me)A)-IC+SRSLPPIC+IPD-NH2]	18 nM	500 nM	–
AICSRSLP[Oic]I[Pen]IPD-OH (disulfide 3-11; also: HCl salt) [Example 29: AIC+SRSLP-(Oic)-I-(Pen)+IPD-OH (HCl salt)]	–	–	rat MASP2 IC50 [1]: 17.4 nM
[Sar]ICSRSLP[Oic]I[Pen]IP[PEG3]-OH (disulfide 3-11; N-terminus assumed; SMILES CC[C@H](C)[C@H](NC(=O)CNC)C(=O)N[C@H]1CSSC(C)(C)[C@@H](C(=O)N[C@H](C(=O)N2CCC[C@H]2C(=O)NCCOCCOCCOCCC(=O)O)[C@@H](C)CC)NC(=O)[C@H]([C@@H](C)CC)NC(=O)[C@@H]2C[C@@H]3CCCC[C@@H]3N2C(=O)[C@@H]2CCCN2C(=O)[C@H](CC(C)C)NC(=O)[C@H](CO)NC(=O)[C@H](CCCNC(=N)N)NC(=O)[C@H](CO)NC1=O) [Example 468: ((N-Me)G)-IC+SRSLP-(Oic)-I-(Pen)+IP-(PEG2(13 atoms))-OH]	–	–	rat MASP2 IC50 [1]: 80 nM

Source: patent US20210246166A1 (Bayer, published 2021)
